Data as given in the Human Domainome abundance scans (Beltran et al. 2025).
± gives the uncertainty stated by the source.

B1: 3'-5' exoribonuclease 1, residues 65 to 114; numbered along this chain, Q8IV48 (parent)
chain: VYKEIAITNGCINRMSKEELRAKLSEFKLETRGVKDVLKKRLKNYYKKQK

Variants of: B1
Assay: abundance fitness (aPCA) (normalised: wild type 0, dead -1); higher = more abundant; growth selection in yeast, the domain comes from the species named
Settings: Homo sapiens

Abundance fitness: each site, then its substitutions
A22: L -0.052 ± 0.038, M -0.047 ± 0.051, N -0.027 ± 0.061, P -0.948 ± 0.079, Q -0.044 ± 0.06, R -0.031 ± 0.038, S -0.04 ± 0.039, T -0.055 ± 0.052, V -0.048 ± 0.038, W -0.209 ± 0.046
K23: C -0.158 ± 0.057, E -0.56 ± 0.048, G -0.861 ± 0.043, H -0.154 ± 0.062, L -0.176 ± 0.035, P -0.941 ± 0.061, Q -0.11 ± 0.049, R -0.101 ± 0.036, S -0.318 ± 0.039, T -0.172 ± 0.047, V -0.182 ± 0.036, W -0.234 ± 0.044
L24: A -0.704 ± 0.06, C -0.052 ± 0.049, D -1.05 ± 0.13, E -0.986 ± 0.081, G -0.97 ± 0.048, H -0.772 ± 0.083, I -0.88 ± 0.13, K -0.973 ± 0.086, M -0.507 ± 0.052, N -1.03 ± 0.13, P -0.984 ± 0.072, Q -0.927 ± 0.069, R -0.96 ± 0.043, S -0.488 ± 0.044, T -0.832 ± 0.084, V -0.813 ± 0.046, W -0.902 ± 0.043, Y -0.896 ± 0.085
S25: A 0.032 ± 0.039, C -0.121 ± 0.052, D -0.096 ± 0.056, E -0.106 ± 0.053, F -0.104 ± 0.044, G -0.039 ± 0.037, H -0.099 ± 0.059, I -0.315 ± 0.055, K 0.004 ± 0.047, L -0.083 ± 0.04, M -0.1 ± 0.049, N -0.038 ± 0.063, P -0.323 ± 0.059, Q -0.034 ± 0.053, R 0.022 ± 0.038, T -0.126 ± 0.048, V -0.205 ± 0.04, W -0.188 ± 0.05, Y -0.105 ± 0.05
E26: A -0.202 ± 0.052, C -0.31 ± 0.051, D -0.119 ± 0.061, F -0.169 ± 0.07, G -0.24 ± 0.042, H -0.267 ± 0.079, I -0.432 ± 0.081, K -0.273 ± 0.08, L -0.22 ± 0.053, M -0.267 ± 0.069, N -0.273 ± 0.083, P -0.964 ± 0.099, Q -0.102 ± 0.074, R -0.472 ± 0.046, S -0.185 ± 0.048, T -0.189 ± 0.068, V -0.362 ± 0.054, W -0.406 ± 0.07, Y -0.153 ± 0.067
F27: A -0.065 ± 0.046, C 0.065 ± 0.041, D -0.652 ± 0.078, E -0.036 ± 0.062, G -0.723 ± 0.044, H 0.062 ± 0.049, I 0.003 ± 0.054, K -0.065 ± 0.049, L 0.148 ± 0.034, M 0.026 ± 0.046, N 0.007 ± 0.058, P -0.914 ± 0.067, Q -0.166 ± 0.048, S -0.307 ± 0.037, T -0.483 ± 0.05, W -0.453 ± 0.044, Y -0.019 ± 0.046
K28: A -0.141 ± 0.054, C -0.127 ± 0.053, D -0.156 ± 0.07, E -0.178 ± 0.057, F -0.407 ± 0.083, G 0.038 ± 0.043, H -0.057 ± 0.06, L -0.732 ± 0.053, M -0.194 ± 0.055, P -0.963 ± 0.083, Q -0.124 ± 0.068, R -0.061 ± 0.036, S -0.06 ± 0.042, T -0.338 ± 0.06, V -0.817 ± 0.058, W -0.779 ± 0.059, Y -0.39 ± 0.065
L29: A -0.827 ± 0.044, C -0.256 ± 0.041, D -0.878 ± 0.062, E -0.737 ± 0.068, F -0.688 ± 0.04, G -0.875 ± 0.051, H -0.974 ± 0.051, I -0.349 ± 0.041, K -0.666 ± 0.054, M -0.198 ± 0.051, N -0.827 ± 0.052, P -0.999 ± 0.049, Q -0.196 ± 0.05, T -0.884 ± 0.048, V -0.561 ± 0.04, W -0.694 ± 0.056, Y -0.874 ± 0.047
E30: F -0.501 ± 0.04, G -0.562 ± 0.047, H -0.689 ± 0.04, I -0.732 ± 0.046, K -0.401 ± 0.069, L -0.67 ± 0.036, M -0.685 ± 0.061, N -0.16 ± 0.042, P -0.283 ± 0.035, Q -0.359 ± 0.051, R -0.685 ± 0.036, S -0.148 ± 0.033, T -0.566 ± 0.038, V -0.738 ± 0.058, W -0.516 ± 0.054, Y -0.387 ± 0.041
T31: A -0.198 ± 0.042, F 0.038 ± 0.037, G -0.791 ± 0.056, H 0.143 ± 0.035, I -0.134 ± 0.035, K -0.05 ± 0.054, L -0.639 ± 0.035, M -0.285 ± 0.055, N -0.115 ± 0.038, P -0.114 ± 0.035, Q -0.156 ± 0.045, R -0.327 ± 0.042, S -0.088 ± 0.033, V -0.106 ± 0.041, W -0.161 ± 0.071, Y 0.121 ± 0.04
R32: A -0.383 ± 0.036, C -0.459 ± 0.04, D -0.399 ± 0.049, E -0.572 ± 0.067, F -0.521 ± 0.042, G -0.394 ± 0.039, H -0.319 ± 0.034, I -0.628 ± 0.037, K -0.209 ± 0.047, L -0.703 ± 0.035, M -0.646 ± 0.051, N -0.409 ± 0.037, P -0.964 ± 0.042, Q -0.396 ± 0.043, S -0.318 ± 0.033, T -0.292 ± 0.035, V -0.471 ± 0.036, W -0.478 ± 0.051
G33: A -0.842 ± 0.047, C -0.608 ± 0.045, D -0.663 ± 0.046, E -0.791 ± 0.12, F -0.977 ± 0.056, H -0.875 ± 0.057, I -0.97 ± 0.053, K -0.93 ± 0.09, M -0.988 ± 0.082, N -0.991 ± 0.061, Q -1.09 ± 0.089, R -0.739 ± 0.053, S -0.787 ± 0.038, T -1.06 ± 0.058, W -0.779 ± 0.11, Y -0.931 ± 0.053
V34: A -0.177 ± 0.051, C -0.078 ± 0.059, D -0.293 ± 0.077, E -0.553 ± 0.11, F -0.245 ± 0.048, G -0.213 ± 0.05, H 0.054 ± 0.051, I -0.064 ± 0.042, K 0.079 ± 0.08, L -0.213 ± 0.044, M -0.582 ± 0.075, N 0.039 ± 0.055, P -0.379 ± 0.055, Q -0.241 ± 0.1, R 0.11 ± 0.05, S -0.109 ± 0.043, T 0.046 ± 0.051, W -0.352 ± 0.077, Y -0.244 ± 0.057
K35: A -0.347 ± 0.047, C -0.58 ± 0.052, D -0.772 ± 0.063, F -0.81 ± 0.052, G -0.845 ± 0.052, H -0.709 ± 0.048, I -0.475 ± 0.047, L -0.698 ± 0.041, M -0.765 ± 0.064, N -0.697 ± 0.05, P -0.797 ± 0.05, Q -0.767 ± 0.075, R -0.52 ± 0.041, S -0.48 ± 0.038, T -0.314 ± 0.041, V -0.262 ± 0.044, W -0.815 ± 0.088, Y -0.827 ± 0.057
D36: A -0.024 ± 0.035, E -0.379 ± 0.051, F -0.289 ± 0.035, G -0.244 ± 0.035, H 0 ± 0.036, I -0.334 ± 0.037, K 0.044 ± 0.054, L -0.201 ± 0.033, M -0.27 ± 0.048, N 0.02 ± 0.036, P -0.17 ± 0.036, Q -0.236 ± 0.047, R 0 ± 0.035, S 0.048 ± 0.032, T -0.042 ± 0.037, V -0.292 ± 0.035, W -0.106 ± 0.048, Y -0.176 ± 0.034
V37: A -0.037 ± 0.061, C -0.191 ± 0.078, D -0.25 ± 0.11, E -0.096 ± 0.098, F -0.562 ± 0.053, G -0.639 ± 0.08, H -0.695 ± 0.069, I -0.228 ± 0.046, K 0.027 ± 0.075, L -0.544 ± 0.052, N -0.321 ± 0.076, P -1.02 ± 0.11, Q -0.148 ± 0.075, R -0.124 ± 0.066, S -0.136 ± 0.055, T 0.01 ± 0.063, W -0.763 ± 0.12, Y -0.853 ± 0.095
L38: A -0.893 ± 0.11, D -0.376 ± 0.25, E -0.933 ± 0.2, F -0.668 ± 0.049, G -1.09 ± 0.1, H -1.02 ± 0.076, I -0.541 ± 0.049, K -0.828 ± 0.11, M -0.338 ± 0.066, N -0.95 ± 0.07, P -0.968 ± 0.072, Q -0.874 ± 0.076, R -0.948 ± 0.072, S -0.458 ± 0.042, T -0.993 ± 0.065, W -0.629 ± 0.087, Y -1.05 ± 0.085
K39: A -0.36 ± 0.051, C -0.396 ± 0.067, D -0.967 ± 0.18, E -0.939 ± 0.14, F -0.909 ± 0.059, G -0.721 ± 0.1, H -1.11 ± 0.099, I -0.382 ± 0.055, L -0.632 ± 0.051, M -0.521 ± 0.11, N -0.582 ± 0.057, P -0.979 ± 0.091, Q -0.398 ± 0.089, R -0.114 ± 0.068, T -0.458 ± 0.055, V -0.196 ± 0.063, W -1.04 ± 0.2, Y -0.917 ± 0.09
K40: A -0.427 ± 0.038, C -0.705 ± 0.052, D -0.741 ± 0.062, E -0.44 ± 0.055, F -0.992 ± 0.073, G -0.777 ± 0.04, H -0.576 ± 0.056, I -0.819 ± 0.07, L -0.608 ± 0.037, M -0.634 ± 0.057, N -0.319 ± 0.067, P -0.951 ± 0.068, S -0.521 ± 0.039, T -0.398 ± 0.044, V -0.669 ± 0.038, W -0.985 ± 0.062, Y -0.7 ± 0.059
R41: A -0.891 ± 0.046, C -1.01 ± 0.078, D -1.09 ± 0.15, E -1.02 ± 0.067, F -0.887 ± 0.18, H -1.02 ± 0.12, I -0.865 ± 0.18, K -0.914 ± 0.089, M -0.803 ± 0.062, N -0.895 ± 0.17, P -0.803 ± 0.063, Q -0.992 ± 0.066, S -0.641 ± 0.044, T -0.963 ± 0.067
